From patent US20260069689A1 (Regeneron, published 2026)

Columns and labels:
[1] = molecular target: human FcγR3a 176Val allotype receptor (human, UniProt P08637 17-254); experiment: cell-based or functional assay
SARS-COV-2 RBD-MMH [2] = molecular target: SARS-COV-2 RBD-MMH (SARS-CoV-2); experiment: SPR 37C, run with dissociation at pH 5.0
SARS-COV-2 RBD-MMH [3] = molecular target: SARS-COV-2 RBD-MMH (SARS-CoV-2); experiment: SPR 37C, run with dissociation at pH 7.4
[4] = molecular target: SARS-COV-2 RBD extracellular domain expressed with a C-terminal myc-myc-hexahistidine tag (SARS-CoV-2); experiment: SPR (Biacore), mAb captured by anti-human Fc, RBD-mmH in solution, 25 C

B1: mAb14290 (antibody)
heavy: not shown
light: EIVLTQSPGTLSLSPGERATLSCRASQSVNNNYLAWYQQKPGQTPRLLIYGASSRATGIPDRFSGSGSGTDFTLTITRLEPEDFAVYHCQQYGRSPTTFGQGTRLEIKRTVAAPSVFIFPPSDEQLKSGTASVVCLLNNFYPREAKVQWKVDNALQSGNSQESVTEQDSKDSTYSLSSTLTLSKADYEKHKVYACEVTHQGLSSPVTKSFNRGEC
EC50 (M), Jurkat/CD20/spike [1]: 3.42e-09 M | Fold induction, Jurkat CD20 [1]: 1 fold | Fold induction, Jurkat/CD20/spike [1]: 9.5 fold

B2: mAb14259 (antibody)
heavy: not shown
light: DIVMTQSPLSLPVTPGEPASISCRSSQTLLHSNGYNYLDWYLQKPGQSPQLLIHLGSNRASGVPDRFSGSGSVTDFTLKISRVEAEDVGVYYCMQALQTPYTFGQGTKLEIKRTVAAPSVFIFPPSDEQLKSGTASVVCLLNNFYPREAKVQWKVDNALQSGNSQESVTEQDSKDSTYSLSSTLTLSKADYEKHKVYACEVTHQGLSSPVTKSFNRGEC
EC50 (M), Jurkat/CD20/spike [1]: 3.94e-10 M | Fold induction, Jurkat CD20 [1]: 1 fold | Fold induction, Jurkat/CD20/spike [1]: 8.7 fold

B3: mAb14291 (antibody)
heavy: not shown
light: DIVMTQSPLSLPVTPGEPASISCRSSQSLLHSNGYNYINWYLQKPGQSPQLLMYLGSNRASGVPDRFSGSGSGTDSTLKISRVEAEDAGVYYCMQTRQTPYTFGQGTKLEIKRTVAAPSVFIFPPSDEQLKSGTASVVCLLNNFYPREAKVQWKVDNALQSGNSQESVTEQDSKDSTYSLSSTLTLSKADYEKHKVYACEVTHQGLSSPVTKSFNRGEC
EC50 (M), Jurkat/CD20/spike [1]: 3.02e-10 M | Fold induction, Jurkat CD20 [1]: 1.1 fold | Fold induction, Jurkat/CD20/spike [1]: 9.7 fold

B4: mAb14285 (antibody)
heavy: not shown
light: QSALTQPASVSGSPGQSITISCTGTSSDVESYNLVSWYQQHPGKAPKLMIYEGSKRPSGVSNRFSGSKSGNTASLTISGLQAEDEADYYCSSYAGSSTWVFGGGTKLTVLGQPKAAPSVTLFPPSSEELQANKATLVCLISDFYPGAVTVAWKADSSPVKAGVETTTPSKQSNNKYAASSYLSLTPEQWKSHRSYSCQVTHEGSTVEKTVAPTECS
EC50 (M), Jurkat/CD20/spike [1]: 2.43e-10 M | Fold induction, Jurkat CD20 [1]: 1.1 fold | Fold induction, Jurkat/CD20/spike [1]: 11 fold | RBD.mmh Bound at pH 7.4 (RU) (SARS-COV-2 RBD-MMH [2]): 51.5 RU | koff (SARS-COV-2 RBD-MMH [2]): 0.0025 s⁻¹ | t½ (SARS-COV-2 RBD-MMH [2]): 4.6 min | RBD.mmh Bound at pH 7.4 (RU) (SARS-COV-2 RBD-MMH [3]): 64.2 RU | koff (SARS-COV-2 RBD-MMH [3]): 0.0258 s⁻¹

B5: mAb14287 (antibody)
heavy: not shown
light: QSALTQPASVSGSPGQSITISCTGTSSDVGSYNLVSWYQQHPGKAPKLMIYEVSKRPSGVSNRFSGSKSGNTASLTISGLQAEDEADYYCSSYAGSRREVFGGGTKLTVLGQPKAAPSVTLFPPSSEELQANKATLVCLISDFYPGAVTVAWKADSSPVKAGVETTTPSKQSNNKYAASSYLSLTPEQWKSHRSYSCQVTHEGSTVEKTVAPTECS
EC50 (M), Jurkat/CD20/spike [1]: 1.23e-09 M | Fold induction, Jurkat CD20 [1]: 1 fold | Fold induction, Jurkat/CD20/spike [1]: 6.2 fold

B6: mAb14295 (antibody)
heavy: not shown
light: DIQMTQSPSSLSASVGDRVTITCRASQSINTYLNWYQQKPGKAPNLLIDGASSLQSGVPSRFSGSGSGTDFILTISSLRPEDFATYYCQQSYSIPLTFGGGTRVEIKRTVAAPSVFIFPPSDEQLKSGTASVVCLLNNFYPREAKVQWKVDNALQSGNSQESVTEQDSKDSTYSLSSTLTLSKADYEKHKVYACEVTHQGLSSPVTKSFNRGEC
EC50 (M), Jurkat/CD20/spike [1]: 1.93e-10 M | Fold induction, Jurkat CD20 [1]: 1 fold | Fold induction, Jurkat/CD20/spike [1]: 11.5 fold

B7: mAb14314 (antibody)
heavy: not shown
light: QSVLTQPPSVSAAPGQKVTISCSGSISNIGNNYVSWYQQLPGTAPKLLIYDNDKRPSGIPDRFSGSRSGTSATLGITGLQTGDEADYYCGTWDSSLTAYVFGTGTKVTVLGQPKAAPSVTLFPPSSEELQANKATLVCLISDFYPGAVTVAWKADSSPVKAGVETTTPSKQSNNKYAASSYLSLTPEQWKSHRSYSCQVTHEGSTVEKTVAPTECS
Fold induction, Jurkat CD20 [1]: 1.1 fold | Fold induction, Jurkat/CD20/spike [1]: 3.9 fold

B8: mAb14232 (antibody)
heavy: not shown
light: QSALTQPPSASGSPGQSVTISCTATSSDVGNYNYVSWYQQHPGKAPKLMIYEVTKRPSGVPDRFSGSKSGNTASLTVSGLQAEDEADYYCSSYAGSWGVFGGGTKLTVLGQPKAAPSVTLFPPSSEELQANKATLVCLISDFYPGAVTVAWKADSSPVKAGVETTTPSKQSNNKYAASSYLSLTPEQWKSHRSYSCQVTHEGSTVEKTVAPTECS
EC50 (M), Jurkat/CD20/spike [1]: 1.31e-10 M | Fold induction, Jurkat CD20 [1]: 1.2 fold | Fold induction, Jurkat/CD20/spike [1]: 10.8 fold | RBD.mmh Bound at pH 7.4 (RU) (SARS-COV-2 RBD-MMH [2]): 10.1 RU | koff (SARS-COV-2 RBD-MMH [2]): 0.000656 s⁻¹ | t½ (SARS-COV-2 RBD-MMH [2]): 17.6 min | RBD.mmh Bound at pH 7.4 (RU) (SARS-COV-2 RBD-MMH [3]): 8.2 RU | koff (SARS-COV-2 RBD-MMH [3]): 0.0311 s⁻¹

B9: mAb14233 (antibody)
heavy: not shown
light: SYELTQPPSVSVSPGQTARITCSGDVLAKLYAYWYQHKPGQAPVLVIYKDSERPSGIPERFSGSSSGTTVTLTISGVQAEDEADYYCQSADSSGSLWVFGGGTKLTVLGQPKAAPSVTLFPPSSEELQANKATLVCLISDFYPGAVTVAWKADSSPVKAGVETTTPSKQSNNKYAASSYLSLTPEQWKSHRSYSCQVTHEGSTVEKTVAPTECS
EC50 (M), Jurkat/CD20/spike [1]: 2.8e-10 M | Fold induction, Jurkat CD20 [1]: 1.1 fold | Fold induction, Jurkat/CD20/spike [1]: 11 fold

B10: mAb14288 (antibody)
heavy: not shown
light: QSVLTQPPSVSAAPGQKVTISCSGSSSNIGNNYVSWYQQLPGTAPKLLIYENNKRPSGIPDRFSGSKSGTSATLGITGLQTGDEADYYCGTWDSSLSAGQGVFGGGTKLTVLGQPKAAPSVTLFPPSSEELQANKATLVCLISDFYPGAVTVAWKADSSPVKAGVETTTPSKQSNNKYAASSYLSLTPEQWKSHRSYSCQVTHEGSTVEKTVAPTECS
EC50 (M), Jurkat/CD20/spike [1]: 5.1e-10 M | Fold induction, Jurkat CD20 [1]: 1 fold | Fold induction, Jurkat/CD20/spike [1]: 6.7 fold

B11: mAb14255 (antibody, V domains shown)
VH: QVQLQESGPGLVKPSETLSLTCTVSGGSISGYYWSWIRQPPGKGLDWIGYIYYRGNTNYNPSLKSRVTISVDTSNNQFSLKLSSVTAADTAVYYCARYGEGYGDASGYHFDYWGQGTLVTVSS
VL: QSALTQPASVSGSPGQSITISCTGTSSDVGSYNLVSWYQQHPGKAPKLMIYEDSKRPSGVANPFSGSKSGNTASLTISGLQAEDEADYYCSSYAGSSTWVFGGGTKLTVLG
Kd [4]: 2.84 nM | koff [4]: 0.00499 s⁻¹ | kon [4]: 1.75e+06 M⁻¹ s⁻¹ | t½ [4]: 2.3 min

B12: mAb14257 (antibody, V domains shown)
VH: EVQLVESGGGLVQPGGSLRLSCAASGFTVSRSYMNWVRQAPGKGLEWVSVVFTGGTTKHTDSVKGRFTISRDNSMNTLYLQMNSLRPEDTAVYYCARVAIVETTGAFDIWGQGTMVTVSS
VL: QSVLTQPPSVSGAPGQRVTISCTGTSSNIGADFDVHWYQQFPGTAPKLLIYGHTNRPSGIPDRFSGSKSGTSASLAITGLQAEDEADYYCQSYDSSLSGSVVFGGGTKLTVLG
Kd [4]: 2.8 nM | koff [4]: 0.00952 s⁻¹ | kon [4]: 3.4e+06 M⁻¹ s⁻¹ | t½ [4]: 1.2 min

B13: mAb14315 (antibody, V domains shown)
VH: QVQLVQSGAEVKKPGSSVKVSCKASGDTFSTYAINWVRQAPGQGLEWMGRFIHIFGTANYAQKFQGRVTITADESTSTAYMELRSLRSEDTAVYYCARDGVDYGDYRPDYWGQGTLVTVSS
VL: EIVLTQSPGTLSLSPGERATLSCRASQSVSSNYLAWYQQKPGQAPRLLIYGASSRATGIPERFSGSGSGTDFTLTISRLEPEDFAVYYCQQYGSSLYTFGQGTKLEIKR
Kd [4]: 2.49 nM | koff [4]: 0.00102 s⁻¹ | kon [4]: 407000 M⁻¹ s⁻¹ | t½ [4]: 11.4 min
